Source: patent US20240173398A1 (MAX PLANCK GESELLSCHAFT ZUR F RDERUNG DER WISSENSCHAFTEN E V, published 2024)

Target: SARS-CoV-2 S1 334-526 N343D (SARS-CoV-2, UniProt P0DTC2 334-526)
Assay: co-secretion from Pichia pastoris; biochemical and structural analysis

B1: VHH antibody Re21D01 (VHH)
VHH: QVQLVESGGALVQPGGSLRLSCVASGFTFSSFAMGWYRQAPGKECEWVATITITGGSTNYADSVKGRFTISRDNAKNTVYLQMNSLKPEDTAVYYCNPDPGCRRGQGTQVTVSS
  binding result: binds
